Results published in US20240058446A1, “CHIMERIC TIM4 RECEPTORS AND USES THEREOF” (CERO THERAPEUTICS, INC., priority 2019, published 2024).

B1: CTX137: Chimeric Tim4 receptor (SEQ ID NO:68): Tim4 binding domain, CD28 transmembrane, CD28 costimulatory, DAP12 signaling domain; expressed in T cells (protein)
chain: MSKEPLILWLMIEFWWLYLTPVTSETVVTEVLGHRVTLPCLYSSWSHNSNSMCWGKDQCPYSGCKEALIRTDGMRVTSRKSAKYRLQGTIPRGDVSLTILNPSESDSGVYCCRIEVPGWFNDVKINVRLNLQRASTTTHRTATTTTRRTTTTSPTTTRQMTTTPAALPTTVVTTPDLTTGTPLQMTTIAVFTTANTCLSLTPSTLPEEATGLLTPEPSKEGPILTAESETVLPSDSWSSVESTSADTVLLTSKESKVWDLPSTSHVSMWKTSDSVSSPQPGASDTAVPEQNKTTKTGQMDGIPMSMKNEMPISQFWVLVVVGGVLACYSLLVTVAFIIFWVRSKRSRLLHSDYMNMTPRRPGPTRKHYQPYAPPRDFAAYRSYFLGRLVPRGRGAAEAATRKQRITETESPYQELQGQRSDVYSDLNTQRPYYK
modifications: Tim4 binding domain-CD28 transmembrane-CD28 costimulatory signaling domain-DAP12 signaling domain; SIGNAL (1)..(24)
notes: expressed in T cells
B2: CTX140: Chimeric Tim4 receptor (SEQ ID NO:44): Tim4 binding domain, CD28 hinge, CD28 transmembrane, CD28 costimulatory, DAP12 signaling domain (protein)
chain: MSKEPLILWLMIEFWWLYLTPVTSETVVTEVLGHRVTLPCLYSSWSHNSNSMCWGKDQCPYSGCKEALIRTDGMRVTSRKSAKYRLQGTIPRGDVSLTILNPSESDSGVYCCRIEVPGWFNDVKINVRLNLQRASTTTHRTATTTTRRTTTTSPTTTRQMTTTPAALPTTVVTTPDLTTGTPLQMTTIAVFTTANTCLSLTPSTLPEEATGLLTPEPSKEGPILTAESETVLPSDSWSSVESTSADTVLLTSKESKVWDLPSTSHVSMWKTSDSVSSPQPGASDTAVPEQNKTTKTGQMDGIPMSMKNEMPISQIEVMYPPPYLDNEKSNGTIIHVKGKHLCPSPLFPGPSKPFWVLVVVGGVLACYSLLVTVAFIIFWVRSKRSRLLHSDYMNMTPRRPGPTRKHYQPYAPPRDFAAYRSYFLGRLVPRGRGAAEAATRKQRITETESPYQELQGQRSDVYSDLNTQRPYYK
modifications: Tim4 binding domain-CD28 hinge-CD28 transmembrane-CD28 costimulatory signaling domain-DAP12 signaling domain; SIGNAL (1)..(24)
B3: CTX143: Chimeric Tim4 receptor (SEQ ID NO:45): Tim4 binding domain, modified IgG4 hinge, CD28 transmembrane, CD28 costimulatory, DAP12 signaling domain (protein)
chain: MSKEPLILWLMIEFWWLYLTPVTSETVVTEVLGHRVTLPCLYSSWSHNSNSMCWGKDQCPYSGCKEALIRTDGMRVTSRKSAKYRLQGTIPRGDVSLTILNPSESDSGVYCCRIEVPGWFNDVKINVRLNLQRASTTTHRTATTTTRRTTTTSPTTTRQMTTTPAALPTTVVTTPDLTTGTPLQMTTIAVFTTANTCLSLTPSTLPEEATGLLTPEPSKEGPILTAESETVLPSDSWSSVESTSADTVLLTSKESKVWDLPSTSHVSMWKTSDSVSSPQPGASDTAVPEQNKTTKTGQMDGIPMSMKNEMPISQESKYGPPCPPCPFWVLVVVGGVLACYSLLVTVAFIIFWVRSKRSRLLHSDYMNMTPRRPGPTRKHYQPYAPPRDFAAYRSYFLGRLVPRGRGAAEAATRKQRITETESPYQELQGQRSDVYSDLNTQRPYYK
modifications: Tim4 binding domain-modified IgG4 hinge-CD28 transmembrane-CD28 costimulatory signaling domain-DAP12 signaling domain; SIGNAL (1)..(24)

How the values were obtained:
Jeko-1 MCL tumor = experiment: JeKo-1 fLuc+ tumor model, chimeric Tim4 receptor T cells plus ibrutinib, bioluminescence imaging; assay type: in vivo; conditions: NSG mice, 1e6 Jeko-1 fLuc+ i.v.; ibrutinib 125 mg/kg daily for 3 days, then 1e6 T cells i.v. and 8 mg/kg ibrutinib daily; FIG. 18
Protocol: FIG. 18. […] NSG mice were inoculated i.v. with 1e6 Jeko-1 fLuc+ cells. 4 days after inoculation, mice were dosed daily with 125 mg/kg ibrutinib by oral gavage for 3 days. 7 days after inoculation, 1e6 chimeric Tim4 receptor-T cells were infused i.v. Following T cell infusion, mice were dosed daily with 8 mg/kg ibrutinib. N=10 mice per group. Chimeric Tim4 receptor-T cells were generated from healthy donor PBMCs. CD4+ and CD8+ T cells were isolated and mixed at a 1:1 ratio, then stimulated overnight with TransACT. Activated T cells were transduced with 5MOI of the indicated construct (CTX137, CTX140, or CTX156). Cells were used for Incucyte experiments 7 days after transduction. NSG mice were inoculated intravenously with 1e6 Jeko-1 fLuc+ cells. Mice were dosed with 125 mg/kg of Ibrutinib by oral gavage daily for 3 days, then transfused with 1e6 CER-T cells and dosed daily with 8 mg/kg Ibrutinib for the duration of the experiment. Tumor growth was monitored by bioluminescence imaging (BLI) (sum of photons from 8 sec exposure). n=10 for each group.

[1] = test system: JeKo-1 mantle cell lymphoma cells; experiment: Incucyte co-culture of chimeric Tim4 receptor T cells with JeKo-1 mCherry+ cells; assay type: cell-based; conditions: 1:1 E:T ratio; T cells transduced with 5MOI; FIG. 17
Protocol: FIG. 17. Multiple chimeric Tim4 constructs eliminate ibrutinib treated JeKo-1 cells. T cells generated from healthy donor PBMCs were transduced with 5MOI of CTX137, CTX140, CTX143, or CTX156 (tEGFR control). Cells were cocultured at a 1:1 E:T ratio with Jeko-1 mCherry+ cells. Surviving Jeko-1 mCherry+ cells were counted every 2 hours and normalized to the count at 2 h. Wells were plated in duplicate. Error bars represent +/−SEM.
Chimeric Tim4 receptor (CTX137, CTX140, or CTX143) modified T cells were generated from healthy donor PBMCs. CD4+ and CD8+ T cells were isolated and mixed at a 1:1 ratio, then stimulated overnight with TransACT. Activated T cells were transduced with 5MOI of the indicated construct. Cells were used for Incucyte experiments 6 days after transduction. JeKo-1 mCherry+ cells were plated with chimeric Tim4 receptor-T cells at a 1:1 effector:target (E:T) ratio. Surviving Jeko-1 mCherry+ cells were counted every 2 hours and normalized to the count at 2 h. Wells were plated in duplicate.

[2] = test system: JeKo-1 mantle cell lymphoma cells; experiment: Incucyte killing of ibrutinib pre-treated JeKo-1 mCherry+ cells by chimeric Tim4 receptor T cells; assay type: cell-based; conditions: JeKo-1 pre-treated with 25 μM ibrutinib for 20 hours; 2:1 effector:target ratio; 0.5 μM ibrutinib present; FIG. 16
Protocol: FIG. 16. Chimeric Tim4 receptor killing of ibrutinib pre-treated JeKo-1 cells. JeKo-1 mantle cell lymphoma cells engineered to express mCherry were pre-treated with 25 μM ibrutinib for 20 hours. T cells transduced with chimeric Tim4 receptor (CTX137) or CTX156 (tEGFR control) were co-cultured at a 2:1 effector:target ratio with JeKo-1 cells mCherry+ cells in the presence of 0.5 μM ibrutinib. Surviving JeKo-1 mCherry+ cells were counted every 2 hours and normalized to the count at 2 h. Wells were plated in duplicate. Error bars represent +/−SEM.
Chimeric Tim4 receptor-T cells were generated from healthy donor PBMCs. CD4+ and CD8+ T cells were isolated and mixed at a 1:1 ratio, then stimulated overnight with TransACT. Activated T cells were transduced with 5MOI of the indicated construct (CTX137 or CTX156). Cells were used for Incucyte experiments 6 days after transduction. JeKo-1 cells engineered to express mCherry were treated with 25 μM BTK inhibitor ibrutinib for 20 hours then washed. T cells and target cells were incubated at a 2:1 effector:target ratio in the presence of 0.5 μM ibrutinib. Surviving JeKo-1 mChery+ cells were counted every 2 hours and normalized to the count at 2 hours. Wells were plated in duplicate.

| Molecule | protection against JeKo-1 tumor (tumor growth by BLI) (Jeko-1 MCL tumor) | elimination of JeKo-1 cells (surviving mCherry+ cells normalized to count at 2 h) [1] | killing of ibrutinib pretreated JeKo-1 cells (surviving mCherry+ cells normalized to count at 2 h) [2] |
| --- | --- | --- | --- |
| B1 | provide early protection | eliminate JeKo-1 mantle cell lymphoma cells | induced killing |
| B2 | provide early protection | eliminate JeKo-1 mantle cell lymphoma cells | – |
| B3 | – | eliminate JeKo-1 mantle cell lymphoma cells | – |
